This assay has as its target human plasma membrane Ca2+-ATPase 1, full-length human PMCA1d (human) (UniProt P20020).
Chain of UniProt P20020 (P20020 other isoform, or with tags, fused parts or gaps): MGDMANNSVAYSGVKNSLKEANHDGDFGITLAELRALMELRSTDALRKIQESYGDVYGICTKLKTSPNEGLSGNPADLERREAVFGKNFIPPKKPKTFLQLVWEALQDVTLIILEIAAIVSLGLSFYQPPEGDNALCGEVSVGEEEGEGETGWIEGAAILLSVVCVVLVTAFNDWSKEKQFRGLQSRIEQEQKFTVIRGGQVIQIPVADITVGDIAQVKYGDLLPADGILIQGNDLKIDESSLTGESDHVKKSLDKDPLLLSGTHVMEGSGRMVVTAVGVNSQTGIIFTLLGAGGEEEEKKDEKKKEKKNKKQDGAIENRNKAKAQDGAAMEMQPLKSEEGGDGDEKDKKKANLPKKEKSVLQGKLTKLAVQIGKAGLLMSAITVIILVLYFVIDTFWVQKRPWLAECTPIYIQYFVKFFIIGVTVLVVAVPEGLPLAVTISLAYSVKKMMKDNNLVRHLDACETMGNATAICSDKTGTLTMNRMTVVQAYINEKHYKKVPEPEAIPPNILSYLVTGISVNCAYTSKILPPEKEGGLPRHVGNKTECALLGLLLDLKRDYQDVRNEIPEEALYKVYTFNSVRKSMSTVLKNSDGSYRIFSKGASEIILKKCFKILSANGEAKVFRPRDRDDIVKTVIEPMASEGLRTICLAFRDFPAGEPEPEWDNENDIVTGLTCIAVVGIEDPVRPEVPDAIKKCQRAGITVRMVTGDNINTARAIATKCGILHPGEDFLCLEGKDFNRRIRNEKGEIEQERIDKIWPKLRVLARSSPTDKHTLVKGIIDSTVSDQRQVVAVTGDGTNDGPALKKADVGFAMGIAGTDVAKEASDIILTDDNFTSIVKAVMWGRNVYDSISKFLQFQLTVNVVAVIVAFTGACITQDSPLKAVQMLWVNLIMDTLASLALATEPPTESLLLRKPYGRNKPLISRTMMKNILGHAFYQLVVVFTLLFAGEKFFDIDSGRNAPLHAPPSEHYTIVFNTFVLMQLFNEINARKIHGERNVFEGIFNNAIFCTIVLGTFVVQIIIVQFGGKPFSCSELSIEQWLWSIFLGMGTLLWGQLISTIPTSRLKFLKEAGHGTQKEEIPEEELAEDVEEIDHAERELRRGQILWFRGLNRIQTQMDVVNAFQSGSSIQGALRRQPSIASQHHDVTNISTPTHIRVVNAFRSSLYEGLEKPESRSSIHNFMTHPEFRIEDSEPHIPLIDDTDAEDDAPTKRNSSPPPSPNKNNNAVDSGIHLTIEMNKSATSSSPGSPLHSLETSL

Regarding neuroplastin (natural protein), the Vmax of the ATPase activity of purified hPMCA1-NPTN proteins (nmol mg^-1 min^-1) turned out to be 326.

Values taken from publication PMC6127144.
